Series [1] addresses T1, RIG-I CTD I875A (crystal) (human, UniProt O95786 802-925, I875A).
T1 sequence: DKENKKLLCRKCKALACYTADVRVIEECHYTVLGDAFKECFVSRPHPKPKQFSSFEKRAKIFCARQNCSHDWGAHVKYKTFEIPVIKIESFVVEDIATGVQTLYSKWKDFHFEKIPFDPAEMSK
Put plainly: X-ray crystallography.

The target in series [2] is T2, RIG-I CTD WT (crystal) (human, UniProt O95786 802-925).
T2 sequence: T1 sequence with A74I
Put plainly: X-ray crystallography.

Residue numbers refer to the chain shown, from its start.

B1: p-dsRNA (crystallization) (dsRNA)
RNA 1: GACGCUAGCGUC
RNA 2: GACGCUAGCGUC
modifications: 5'-monophosphate
For the molecule B1, in series [1], the binding result was “binds”.

B2: OH-dsRNA (crystallization) (dsRNA)
RNA 1: GACGCUAGCGUC
RNA 2: GACGCUAGCGUC
Turning to B2, the binding result in series [2] is “binds”.

The record behind these values is publication PMC10681732.
